Where no end group is shown, it is not given here.
B1: Human Type I taste receptor T1R3 (receptor, UniProt Q7RTX0 21-852, looked up)
chain: APLCLSQQLRMKGDYVLGGLFPLGEAEEAGLRSRTRPSSPVCTRFSSNGLLWALAMKMAVEEINNKSDLLPGLRLGYDLFDTCSEPVVAMKPSLMFLAKAGSRDIAAYCNYTQYQPRVLAVIGPHSSELAMVTGKFFSFFLMPQVSYGASMELLSARETFPSFFRTVPSDRVQLTAAAELLQEFGWNWVAALGSDDEYGRQGLSIFSALAAARGICIAHEGLVPLPRADDSRLGKVQDVLHQVNQSSVQVVLLFASVHAAHALFNYSISSRLSPKVWVASEAWLTSDLVMGLPGMAQMGTVLGFLQRGAQLHEFPQYVKTHLALATDPAFCSALGEREQGLEEDVVGQRCPQCDCITLQNVSAGLNHHQTFSVYAAVYSVAQALHNTLQCNASGCPAQDPVKPWQLLENMYNLTFHVGGLPLRFDSSGNVDMEYDLKLWVWQGSVPRLHDVGRFNGSLRTERLKIRWHTSDNQKPVSRCSRQCQEGQVRRVKGFHSCCYDCVDCEAGSYRQNPDDIACTFCGQDEWSPERSTRCFRRRSRFLAWGEPAVLLLLLLLSLALGLVLAALGLFVHHRDSPLVQASGGPLACFGLVCLGLVCLSVLLFPGQPSPARCLAQQPLSHLPLTGCLSTLFLQAAEIFVESELPLSWADRLSGCLRGPWAWLVVLLAMLVEVALCTWYLVAFPPEVVTDWHMLPTEALVHCRTRSWVSFGLAHATNATLAFLCFLGTFLVRSQPGCYNRARGLTFAMLAYFITWVSFVPLLANVQVVLRPAVQMGALLLCVLGILAAFHLPRCYLLMRQPGLNTPEFFLGGGPGDAQGQNDGNTGNQGKHE
notes: whole, on cells; Present on the cells as a T1R3/T1R3 homodimer or as a heterodimer with T1R2 or T1R1; also called TAS1R3; hT1R3

Legend:
[1] = target: B1; assay: fluorescence microscopy on SH-SY5Y cells
Amyloid β peptide Aβ1-42 = target: T1, Amyloid β peptide Aβ1-42; assay: assay not described
T1 construct: Bought (Wako Pure Chemical Industries); also called Aβ42; amyloid β1-42 peptide

[2] = target: T2, Fluorescent Aβ1-40 peptide (fluorescent label; dye and position not stated); assay: fluorescence microscopy on cell surfaces
T2 construct: also called labeled Aβ1-40 peptide
T2 sequence (peptide, as listed by the source): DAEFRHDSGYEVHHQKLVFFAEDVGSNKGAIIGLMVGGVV

T1 sequence (peptide, as listed by the source): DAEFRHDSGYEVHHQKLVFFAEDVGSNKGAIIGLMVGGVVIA

binding result [1] | binding result (Amyloid β peptide Aβ1-42) | binding result [2] | Binder
binds |  |  | GSNKGAIIGLM (also: fluorescent label, dye and position not given here, also called fluorescent Aβ25-35 peptide) [Fluorescently labeled Aβ25-35 peptide (FL-Aβ25-35)]
 | binds | binds | B1

Reference: patent publication US20260240820A1 (ION CHAT RESEARCH CORPORATE, published 2026)
